This note sets out measurements from patent US20150322152A1 (INSTITUT PASTEUR, published 2015).

Test [1] concerns the target human FcγRI receptor (immobilized for SPR; form not stated) (human) (UniProt P12314). Briefly: SPR, IgG injected onto immobilized hFcγRI. In general terms: SPR reads the build-up and loss of mass on a sensor chip optically.
Test [2] shares this target. Briefly: SPR, IgG injected onto immobilized hFcγRI. The source holds these as a separate data set.
The target is the same in test [3]. The test is described as follows: SPR on immobilized hFcγRI (summary sentence; the table prints 41).
For test [4], the target named is T1, human FcγRI receptor (immobilized for SPR; form not stated) (human, UniProt P12314 16-288, limits assumed).
T1 construct: also called hFcγRI; immobilized hFcγRI
T1 sequence (P12314 16-288 limits assumed): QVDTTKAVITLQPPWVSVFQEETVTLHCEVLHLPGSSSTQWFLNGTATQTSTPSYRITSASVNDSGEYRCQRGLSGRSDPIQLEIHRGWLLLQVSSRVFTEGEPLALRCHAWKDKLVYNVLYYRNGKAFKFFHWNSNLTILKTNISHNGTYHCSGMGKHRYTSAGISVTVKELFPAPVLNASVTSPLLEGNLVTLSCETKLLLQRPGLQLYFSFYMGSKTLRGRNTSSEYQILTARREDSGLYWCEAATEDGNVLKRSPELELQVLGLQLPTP
Briefly: method not stated.

Sequence of human FcγRI receptor (immobilized for SPR; form not stated) (human) (P12314 16-288 limits assumed): as above

Broadly, the Kd is a measure of binding affinity in units of concentration. Read a low Kd as a tighter complex. As usually defined, the koff is the rate constant with which the complex falls apart. High values mean a short-lived complex, low ones a long-lived complex. One may read the kon as the second-order rate constant of association. Higher therefore signals fast association. Consider human IgG1 (antibody), for which, in test [1], the Ka was found to be 2.5e+07 M⁻¹ and the Kd came to 40 nM. In test [2], this molecule displayed a Half life of 3.6 min, a Kd of 41 nM, a koff of 0.0014 s⁻¹ and a kon of 35000 M⁻¹ s⁻¹. For the same molecule, the Kd in test [3] came out at 40 nM.

With mouse IgG2a (antibody), in test [1], the Ka was found to be 2.5e+07 M⁻¹ and the Kd is 40 nM. In test [2], this molecule gave a Half life of 4.52 min, a Kd of 38 nM, a koff of 0.0011 s⁻¹ and a kon of 36000 M⁻¹ s⁻¹.

B1: anti-hFcγRI.1 monoclonal antibody (antibody, mouse IgG2a, V domains shown)
VH: EVQLQESGPGLVQPSQSLSITCTVSGFSLTTYGVHWVRQSPGKGLEWLGMIWSGGSTDYNAAFISRLSISKDNSKSQVFFKMNSLQADDTAIYYCAREWFAYWGQGTSVTVSS
VL: ELVMTQSPASLSASVGETVTITCRASENIYSYLAWYQQKQGKSPQLLVYSAKTLAEGVPSRFSGSGSGTQFSLKINSLQPEDFGSYYCQHHYGTPYTFGGGTKMEIK
notes: Mouse IgG2a; IgG purified by Protein G from hybridoma supernatant; also called anti-hFcγR1.1; hFcγRI.1 mAb
B1 gave a Ka in test [4] of 1.5e+09 M⁻¹.
